Experimental data as given in patent publication US20260201030A1, “ANTIBODY, ANTIBODY-DRUG CONJUGATE THEREOF AND USE THEREOF” (EVOPOINT BIOSCIENCES CO., LTD., priority 2021, published 2026).
Where a chain is given by its changes, count along the chain named. Values belong to the molecule of their own block, whether it stands above or below them.

Experiments:
Assay type in all cases: binding
human Claudin18.2 [1] = molecular target: T1, human Claudin18.2 (Homo sapiens, UniProt P56856); test: Cell-based ELISA affinity of murine antibodies on HEK293T-Claudin18.2 (human) cells
T1 construct: expressed in transfected cells
Procedure: (§1) The affinity of the anti-human Claudin18.2 murine monoclonal antibodies was evaluated by cell-based ELISA. The experimental procedures were as follows: The day before the experiment, HEK293T-Claudin18.2 (human) cells were plated in a 96-well plate at 5×10^4 cells/well. On the day of the experiment, the supernatant was removed, the cells in each well were washed once with 300 μL of PBS, and 100 μL of 4% paraformaldehyde was added to each well for fixation at room temperature for 20 min. Paraformaldehyde was then removed, and the cells in each well were washed twice with 300 μL of PBS. 100 μL of 2% BSA (in PBS) was added to each well, and the mixture was blocked at 37° C. for 2 h. After removing the blocking solution, each antibody subjected to gradient dilution (diluted with 2% BSA (in PBS), starting at […], in a 3-fold gradient, for a total of 11 concentration points) was added to the plate at 100 μL/well, and the mixture was incubated at 37° C. for 2 h. The supernatant was removed, and the cells in each well were washed three times with 300 μL of PBST. 100 μL of an anti-mouse IgG HRP secondary antibody (Jackson, cat #115-035-003) in 2% BSA was added to each well, and the mixture was incubated at 37° C. for 1 h. The secondary antibody was then removed, and the cells in each well were washed five times with 300 μL of PBST, followed by the addition of 100 μL of a TMB substrate (Huzhou InnoReagents Co., Ltd.) per well for color development for 5-20 min. The reaction was stopped by adding 50 μL of 2 N HCl to each well, and OD450 nm values were read on a microplate reader (manufacturer: MD, model: SpectraMax). The values obtained were plotted by GraphPad Prism to calculate the EC50 value.

human Claudin18.1 = molecular target: T2, human Claudin18.1 (Homo sapiens, UniProt P56856); test: FACS specificity of humanized antibodies on HEK293T-Claudin18.1 (human) cells; settings: antibody 50 μg/mL, APC secondary antibody
T2 construct: expressed in transfected cells
Procedure: The specificity of the anti-human Claudin18.2 humanized monoclonal antibodies was determined by flow cytometry (FACS). The experimental procedures were as follows: HEK293T-Claudin18.1 (human) cells were digested, collected by centrifugation, washed three times with pre-cooled PBS, resuspended in 1% BSA (in PBS), and added to a 96-well pointed bottom plate at 3×10^5 cells/well. Each test antibody with a final concentration of 50 μg/mL was added, and the mixture was incubated at 4° C. for 1 h. The cells were washed three times with pre-cooled PBS, and then 1 μL of a fluorescent secondary antibody (APC: Biolegend-410712 or PE: BioLegend-410708) was added to each well. The mixture was incubated at 4° C. for 0.5 h, and the cells were washed three times with pre-cooled PBS, then resuspended, and assayed on a flow cytometer. For reference, anti-human Claudin18.1 positive control antibodies (positive control antibody-1 and positive control antibody-2) were included in the experiment.

human Claudin18.2 [2] = molecular target: T1, human Claudin18.2; test: Cell-based ELISA affinity of humanized antibodies on HEK293T-Claudin18.2 (human) cells; settings: HEK293T-Claudin18.2 cells
Procedure: as §1
The affinity of the anti-human Claudin18.2 humanized monoclonal antibodies was determined by cell-based ELISA. The cell-based ELISA was conducted as described in Example I-3.

human Claudin18.2 [3] = molecular target: T1, human Claudin18.2; test: Cell-based ELISA affinity of humanized antibodies on L929-Claudin18.2 (human) cells; settings: L929-Claudin18.2 cells

Affinity HEK293T-18.2 EC50 (human Claudin18.2 [1]): 10.49 ng/mL
B1: 25C7A5: anti-human Claudin18.2 murine monoclonal antibody, VH SEQ ID NO: 21, VL SEQ ID NO: 22 (antibody, V domains shown)
VH: EVQLQQPGAELVKPGTSVKLSCKASGYTFTNYWLHWVRQRPGQGLEWIGMMHPISGSSNNNERFKSKATLTVDKSSTTAYMQLSRMTSEDSAVYYCARGLLSAMDYWGQGTSVTVSS
VL: CIVLTQSPKSMSMSVGERVTLSCKASENVKTYVSWYQQRPEQSPKLLIYEASNRYTGVPDRFTGSGSATVFTLTISSVQTEDLANYFCGQTYSFPPTFGSGTKLEIK

Affinity HEK293T-18.2 EC50 (human Claudin18.2 [1]): 7.376 ng/mL
B2: 40G11H2: anti-human Claudin18.2 murine monoclonal antibody, VH SEQ ID NO: 50, VL SEQ ID NO: 51 (antibody, V domains shown)
VH: EVQLQQSGAELARPGASVKLSCKASGYTFTSYGIRWVKQRTGQGLEWIGEIYPRGGNTYYDEKFKGKATLTADKSSSTAYMGLRSLTSEDSAVYFCARADYGNSFAYWGQGTLVTVSA
VL: DIVMTQSPSSLTVTAREKVTMSCKSSQSLLNSGNQKNYLTWYHQKPGQPPKLLIYWASTRESGVPDRFTGSGSGTDFTLTISSVQAEDLAVYFCQNAYFYPFTFGTGTKLEIK

Mean APC fluorescence signal value (human Claudin18.1): 382
Median APC fluorescence signal value (human Claudin18.1): 329
Positive rate (%) (human Claudin18.1): 1%
Affinity detected by cell-based ELISA (EC50, ng/mL) HEK293T-Claudin18.2 (human Claudin18.2 [2]): 14.01 ± 2.29(N = 2) ng/mL
Affinity detected by cell-based ELISA (EC50, ng/mL) L929-Claudin18.2 (human Claudin18.2 [3]): 25.62 ng/mL
B3: 2D3A11-HZ2: humanized anti-Claudin18.2 antibody, VH SEQ ID NO: 40, VL SEQ ID NO: 39 (antibody, V domains shown)
VH: QVQLVESGAEVKKPGASVKVSCKASGYTFTSYVVHWVRQAPGQGLEWMGYINPYNADSKYSQEFQGRATLTSDKSASTAYMELSSLRSEDMAVYYCSRSYYGNSFDVWGQGTLVTVSS
VL: DIVMTQSPDSLAVSLGERATINCKSSQSLLNSGNQKNYLTWYQQKPGQSPKLLFFWASTRQSGVPDRFSGSGSGTDFTLTISSLQAEDVAVYYCQNDYYFPFTFGQGTKVEIK

Affinity HEK293T-18.2 EC50 (human Claudin18.2 [1]): 12.32 ng/mL
B4: 8H11A10: anti-human Claudin18.2 murine monoclonal antibody, VH SEQ ID NO: 44, VL SEQ ID NO: 45 (antibody, V domains shown)
VH: QVQLKESGPVLVAPSQSLSITCTVSGFSLTNYGVHWVRQPPGKGLEWLGVIWSGGRTNYNSALMSRLSISKDNSKSQVFLKMNSLQTDDTAMYYCAKRDGIYGDYWGQGTSVTVSS
VL: DIVETQSPSSLTVTAGEKVTMSCKSSQSLLNSGNQKNYLTWYQQKPGQSPKLLIYWASTRESGVPDRFTGSGFGTDFTLTISSVQAEDLAVYYCQNDYIYPLTFGAGTKLELK

Affinity HEK293T-18.2 EC50 (human Claudin18.2 [1]): 6.015 ng/mL
B5: 23F2F2: anti-human Claudin18.2 murine monoclonal antibody, VH SEQ ID NO: 48, VL SEQ ID NO: 49 (antibody, V domains shown)
VH: QVQLKESGGGLVQPGGSMKLSCAASGFTFSDAWMNWVRQSPEKGLEWVAEIRNKADYHATHYVESVTGRFTISRDDSKSSVYLQMNRLRAEDTGIYYCTRNYGSRFDYWGQGTTLTVSS
VL: B4 VL with K36R, Q48H, S49P, F73S, I81V, S82T, I99F, T103A, A106T

Affinity HEK293T-18.2 EC50 (human Claudin18.2 [1]): 8.143 ng/mL
B6: 2D3A11: anti-human Claudin18.2 murine monoclonal antibody, VH SEQ ID NO: 23, VL SEQ ID NO: 24 (antibody, V domains shown)
VH: EVQLQQSGPELVKPGASVRMSCKASGYTFTSYVVHWVKQKPGQGLEWIGYINPYNADSKYNERFKGKATLTSDKSSNSAYMELSSLTSEDSAVYYCSRSYYGNSFDVWGAGTTVTVSS
VL: DIVMTQSPSSLTVTTGEKVTMSCKSSQSLLNSGNQKNYLTWYQQKPGQSPKLLFFWASTRQSGVPDRFTGSGSGTYFTLTISSVQAEDLAVYYCQNDYYFPFTFGTGTKLEIK

Affinity HEK293T-18.2 EC50 (human Claudin18.2 [1]): 5.024 ng/mL
B7: 1A6G10: anti-human Claudin18.2 murine monoclonal antibody, VH SEQ ID NO: 46, VL SEQ ID NO: 47 (antibody, V domains shown)
VH: QVQLKESGGGLVKPGGSLKLSCAASGFTFSSYAMSWVRQTPEKRLEWVAAIHSNGGSTYNSDTMRDRFTISRDHAKNTLYLQMSSLRSEDTALYYCGRQSFGNALDYWGQGTSVTVSS
VL: DIQMTQSPSSLTVTAGEKVTLTCKSSQSLLNSGNQKNYLTWYQQKPGQPPKLLIYWASTRESGVPDRFTGSGSGTFFTLTISSVQAEDLAVYFCQNDYVYPFTFGAGTQLELK

Affinity HEK293T-18.2 EC50 (human Claudin18.2 [1]): 2.399 ng/mL
B8: 32F7A6: anti-human Claudin18.2 murine monoclonal antibody, VH SEQ ID NO: 52, VL SEQ ID NO: 53 (antibody, V domains shown)
VH: QIQLVQSGPELRKPGETVKISCKASGYTFTAYTMGWVKQAPGKGLEWMAWINTYSGVPTYAADFKGRFAFSLETSASTAYLLINNLKNEDTATYFCARGVRGNSMDYWGQGTSVTVSS
VL: DIVETQSPSSLTVTVGERVTLSCKSSQSLLNSGNQRNYLTWSQQKPGQPPKLLIYWASTRESGVPNRFTGGGSGTYFTLTISSVQVEDLAVYYCQNTYSFPFTFGTGTKLEIK
